First the molecules themselves.
B1: Ab-30 (antibody, V domains shown)
VH: EVQLQESGPGLVKPSETLSLTCAVSGYSISSGYYWGWIRQPPGKGLEWIGSIYHSGNTYYNPSLKSRVTISVDTSKNQFSLKLSSVTAADTAVYYCARVPRYSRGDAYYYYGMDVWGQGTTVTVSS
VL: DIQMTQSPSTLSASVGDRVTITCRASQSISSWLAWYQQKPGKAPKLLIYKASSLESGVPSRFSGSGSGTEFTLTISSLQPDDFATYYCQQVKIYPPYTFGGGTKVEIK
B2: Ab-31 (antibody, V domains shown)
VH: B1 VH
VL: DIQMTQSPSTLSASVGDRVTITCRASQSIGSWLAWYQQKPGKAPKLLIYKASSLESGVPSRFSGSGSGTEFTLTISSLQPDDFATYYCQQSGPYPWTFGGGTKVEIK
B3: Ab-29 (antibody, V domains shown)
VH: ELQLQESGPGLVKPSETLSLTCTVSGGSISSNSYYWGWIRQPPGKGLEWIGSIYYSGSTYYNPSLKSRVTISVDTSKNQFSLKLSSVTAADTAVYYCARVRRVAGRGDSYYYYYGMDVWGQGTTVTVSS
VL: DIQMTQSPSSVSASVGDRVTITCRASQGISRWLAWYQQKPGKAPKLLIYAASSLQSGVPSRFSGSGSGTDFTLTISSLQPEDFATYYCQQAISHPWTFGGGTKVEIK

For three molecules, IC50 results are on record in patent US20250313635A1, “ANTI-INTEGRIN ANTIBODIES AND USES THEREOF” (Merck Sharp & Dohme LLC, priority 2022, published 2025).

A word on the IC50: it is the midpoint of a concentration-inhibition curve.

The target in this test is recombinant mouse αvβ8 integrin extracellular domains (mouse) (UniProt P43406). The test is described as follows: AlphaLISA blocking of mouse LAP-6His binding. (Bead proximity is the source of the signal in Alpha formats.)
Chain of recombinant mouse αvβ8 integrin extracellular domains (mouse) (P43406 other isoform, or with tags, fused parts or gaps, form in doubt, chain 1 of 2): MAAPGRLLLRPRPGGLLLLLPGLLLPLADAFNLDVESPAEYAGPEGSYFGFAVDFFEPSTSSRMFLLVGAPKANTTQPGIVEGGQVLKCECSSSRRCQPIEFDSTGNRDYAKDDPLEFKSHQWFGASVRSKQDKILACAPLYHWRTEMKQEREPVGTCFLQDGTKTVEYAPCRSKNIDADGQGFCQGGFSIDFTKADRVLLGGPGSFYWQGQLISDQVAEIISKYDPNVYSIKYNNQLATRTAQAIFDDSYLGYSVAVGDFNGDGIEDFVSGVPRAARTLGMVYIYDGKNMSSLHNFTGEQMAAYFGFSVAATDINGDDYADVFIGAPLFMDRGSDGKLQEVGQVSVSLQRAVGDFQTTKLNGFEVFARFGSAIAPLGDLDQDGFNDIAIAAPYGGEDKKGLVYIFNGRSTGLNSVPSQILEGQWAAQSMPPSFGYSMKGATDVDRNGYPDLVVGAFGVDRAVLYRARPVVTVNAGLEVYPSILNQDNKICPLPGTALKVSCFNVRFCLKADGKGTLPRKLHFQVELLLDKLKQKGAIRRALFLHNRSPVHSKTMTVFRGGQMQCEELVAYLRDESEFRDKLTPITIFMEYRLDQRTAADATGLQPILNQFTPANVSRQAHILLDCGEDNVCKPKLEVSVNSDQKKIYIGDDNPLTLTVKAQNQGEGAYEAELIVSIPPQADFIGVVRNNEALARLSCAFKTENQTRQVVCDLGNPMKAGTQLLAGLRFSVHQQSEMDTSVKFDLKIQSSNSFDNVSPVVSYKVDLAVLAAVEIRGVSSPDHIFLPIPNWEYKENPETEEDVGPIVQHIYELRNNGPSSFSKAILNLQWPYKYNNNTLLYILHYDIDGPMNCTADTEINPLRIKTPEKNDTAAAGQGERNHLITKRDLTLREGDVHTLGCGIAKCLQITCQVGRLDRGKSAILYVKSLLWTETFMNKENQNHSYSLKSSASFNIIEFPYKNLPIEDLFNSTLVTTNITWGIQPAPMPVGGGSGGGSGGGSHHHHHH
Chain of recombinant mouse αvβ8 integrin extracellular domains (mouse) (Q0VBD0 other isoform, or with tags, fused parts or gaps, form in doubt, chain 2 of 2, further chain): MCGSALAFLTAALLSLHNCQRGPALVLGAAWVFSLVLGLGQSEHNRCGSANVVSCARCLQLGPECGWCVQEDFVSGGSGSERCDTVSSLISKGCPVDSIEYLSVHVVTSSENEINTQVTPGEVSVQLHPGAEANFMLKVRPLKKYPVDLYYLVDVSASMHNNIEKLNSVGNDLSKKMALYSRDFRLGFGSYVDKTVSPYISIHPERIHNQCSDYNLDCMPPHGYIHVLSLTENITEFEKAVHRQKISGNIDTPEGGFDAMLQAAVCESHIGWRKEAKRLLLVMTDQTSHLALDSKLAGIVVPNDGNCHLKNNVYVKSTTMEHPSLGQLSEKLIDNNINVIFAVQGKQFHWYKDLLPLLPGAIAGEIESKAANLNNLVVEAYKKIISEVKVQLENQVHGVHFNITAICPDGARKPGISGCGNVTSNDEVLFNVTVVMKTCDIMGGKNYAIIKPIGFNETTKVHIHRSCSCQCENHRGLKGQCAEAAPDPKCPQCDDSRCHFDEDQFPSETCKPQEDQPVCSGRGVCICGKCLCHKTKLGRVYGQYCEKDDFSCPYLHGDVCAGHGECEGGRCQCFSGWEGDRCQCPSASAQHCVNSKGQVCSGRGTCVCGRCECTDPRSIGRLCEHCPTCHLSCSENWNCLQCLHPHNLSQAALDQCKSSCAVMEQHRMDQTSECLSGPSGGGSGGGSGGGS
For the molecule B1, the IC50 is 25.1 nM.

With B2, the IC50 was 66.3 nM.

Take B3: the IC50 worked out at 102 nM.
